Consider eight molecules from patent publication US20180155451A1 (published 2018).

Changes are numbered by the printed parent chain. In names and notes the source's numbering stands.

For experiment [1], the target named is T1, FcgRIa (human, UniProt P12314 16-292).
T1 construct: extracellular domain; Soluble extracellular domain with C-terminal His tag, expressed in FreeStyle293 cells; also called FcγRIa; FcγRI; not shown: His tag attached to the C terminus
Kind of experiment: SPR (Biacore), antibody captured, FcgR as analyte. (In SPR one partner is held on a chip, and binding of the other changes the refractive index at the surface.)

Experiment [2] deals with T2, FcgRIIaH (human, UniProt P12318 34-217).
T2 construct: extracellular domain; Soluble extracellular domain with C-terminal His tag; also called FcγRIIa H; FcγRIIa type H; not shown: His tag attached to the C terminus
T2 sequence (looked up): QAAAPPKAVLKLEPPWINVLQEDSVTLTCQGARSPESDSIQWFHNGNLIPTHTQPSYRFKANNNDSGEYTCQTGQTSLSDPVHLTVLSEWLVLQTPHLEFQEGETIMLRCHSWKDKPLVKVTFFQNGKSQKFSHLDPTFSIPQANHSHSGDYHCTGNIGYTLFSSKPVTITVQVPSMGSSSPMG
The experiment is described as follows: SPR (Biacore), antibody captured, FcgR as analyte.

Experiment [3] concerns the target T3, FcgRIIIaV (human, UniProt P08637 17-208).
T3 construct: extracellular domain; Soluble extracellular domain with C-terminal His tag; polymorphic site made after J. Clin. Invest; also called FcγRIIIa V; not shown: His tag attached to the C terminus
The experiment is described as follows: SPR (Biacore), antibody captured, FcgR as analyte.

The target of experiment [4] is T4, FcgRIIb (human, UniProt P31994 43-217).
T4 construct: extracellular domain; Soluble extracellular domain with C-terminal His tag; also called FcγRIIb; CD32B; not shown: His tag attached to the C terminus
T4 sequence (looked up): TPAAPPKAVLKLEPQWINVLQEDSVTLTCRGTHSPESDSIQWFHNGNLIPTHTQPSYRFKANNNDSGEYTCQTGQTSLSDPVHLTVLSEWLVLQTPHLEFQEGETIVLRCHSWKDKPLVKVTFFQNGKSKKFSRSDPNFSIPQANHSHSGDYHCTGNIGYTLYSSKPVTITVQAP
The experiment is described as follows: SPR (Biacore), antibody captured, FcgR as analyte.

Experiment [5] has as its target T5, FcgRIIIaF (human, UniProt P08637 17-208).
T5 construct: extracellular domain; Soluble extracellular domain with C-terminal His tag; polymorphic site made after J. Clin. Invest; also called FcγRIIIa F; not shown: His tag attached to the C terminus
Kind of experiment: SPR (Biacore), antibody captured, FcgR as analyte.

Experiment [6] concerns the target T6, FcgRIIaR (human, UniProt P12318 34-217).
T6 construct: extracellular domain; Soluble extracellular domain with C-terminal His tag; also called FcγRIIa R; FcγRIIa type R; not shown: His tag attached to the C terminus
T6 sequence (looked up): T2 sequence (looked up) with H134R
The experiment is described as follows: SPR (Biacore), antibody captured, FcgR as analyte.

In experiment [7] the target is T1, FcgRIa. The experiment is described as follows: SPR (Biacore); KD of H240-Kn120/H240-Hl068/L73-k0 divided by KD of this antibody. As for the experimental part:
(§1) Analysis of interaction between obj ective antibody and the FcγR was carried out using Biacore T100 (GE Healthcare), Biacore T200, Biacore A100, and Biacore 4000.

Experiment [8] addresses T2, FcgRIIaH. The description is as above. As for the experimental part:
as §1

Experiment [9] addresses T3, FcgRIIIaV. The description is as above. As for the experimental part: as §1
For experiment [10], the target named is T4, FcgRIIb. The description is as above. As for the experimental part:
as §1

Experiment [11] addresses T5, FcgRIIIaF. The experiment is described as above. As for the experimental part: as §1
Experiment [12] addresses T6, FcgRIIaR. The experiment is described as above. As for the experimental part:
as §1

Experiment [13] deals with T7, FcγRIIa H (FcγRIIa, allotype with His at position 131), extracellular domain with C-terminal His tag (human, UniProt P12318 34-217).
T7 construct: extracellular domain; Soluble receptor expressed in FreeStyle293 cells and used as the analyte in Biacore; also called FcgRIIa H; FcγRIIa type H; not shown: His tag attached to the C terminus
T7 sequence (looked up): T2 sequence (looked up)
The experiment is described as follows: SPR (Biacore T100), antibody captured on antigen-peptide chip, FcγRIIa H as analyte; response per captured antibody relative to GpH7-B3/GpL16-k0. As for the experimental part: (§2) Analysis of interaction between objective antibody and the FcγR was carried out using Biacore T100 (GE Healthcare). HBS-EP+ (GE Healthcare) was used as the running buffer, and the measurement temperature was set to 25° C. Chips produced by immobilizing the antigen peptide by the amine coupling method to a Series S Sencor Chip CM5 (GE Healthcare), or alternatively, chips produced by allowing preliminarily biotinylated antigen peptides to interact with and immobilize onto a Series S Sensor Chip SA (certified) (GE Healthcare) were used. Antibodies of interest were captured onto an antigen peptide-immobilized chip, and allowed to interact to each FcγR diluted with running buffer. To regenerate and repeatedly use the chip, the antibodies captured on the chip were washed off by reacting 10 mM glycine-HCl, pH 1.5.

The target in experiment [14] is T7, FcγRIIa H (FcγRIIa, allotype with His …). Kind of experiment: SPR (Biacore T100), antibody captured on antigen-peptide chip, FcγRIIa H as analyte; response per captured antibody relative to GpH7-A5/GpH7-B3/GpL16-k0. As for the experimental part: as §2

T1 sequence (P12314 16-292): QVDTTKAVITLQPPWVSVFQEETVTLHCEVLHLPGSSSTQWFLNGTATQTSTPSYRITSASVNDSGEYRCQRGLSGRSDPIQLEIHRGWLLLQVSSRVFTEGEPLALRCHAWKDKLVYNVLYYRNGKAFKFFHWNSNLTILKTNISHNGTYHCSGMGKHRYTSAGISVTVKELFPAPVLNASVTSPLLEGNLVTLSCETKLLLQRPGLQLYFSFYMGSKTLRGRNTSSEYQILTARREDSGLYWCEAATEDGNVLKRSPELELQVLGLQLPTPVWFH
T3 sequence (P08637 17-208 F176V limits assumed): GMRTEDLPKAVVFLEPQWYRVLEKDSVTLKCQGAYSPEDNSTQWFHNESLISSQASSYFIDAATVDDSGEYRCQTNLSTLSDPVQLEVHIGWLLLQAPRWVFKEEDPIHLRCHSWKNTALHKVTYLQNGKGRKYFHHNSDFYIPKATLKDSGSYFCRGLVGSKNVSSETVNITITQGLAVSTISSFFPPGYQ
T5 sequence (P08637 17-208): as the sequence (P08637 17-208 F176V limits assumed) above, with V160F counted along it

B1: H240-Kn173/H240-Hl068/L73-k0 (antibody, human IgG1, kappa)
heavy 1: QDQLVQSGAEVKKPGASVKVSCKASGFNIKDTYIQWVRQAPGQGLEWMGRIDPLRKQTKYREKFEGRVTITADTSTNTAYMELSSLRSEDTAVYYCVRSGREFDYWGQGTLVTVSSASTKGPSVFPLAPSSKSTSGGTAALGCLVKDYFPEPVTVSWNSGALTSGVHTFPAVLQSSGLYSLSSVVTVPSSSLGTQTYICNVNHKPSNTKVDKKVEPKSCDKTHTCPPCPAPEYYWGPMVFLFPPKPKDTLMISRTPEVTCVVVDVSDEDPEVKFNWYVDGVEVHNAKTKPREEQYNATYRVVSVLTVLHQDWLNGKEYKCKVSNKDLPAPQEKTISKAKGQPREPQVCTLPPSRDELTKNQVSLWCLVKGFYPSDIAVEWESNGQPENNYKTTPPVLDSDGSFFLYSKLTVDKSRWQQGNVFSCSVMHEALHNHYTQKSLSLSP
heavy 2: QDQLVQSGAEVKKPGASVKVSCKASGFNIKDTYIQWVRQAPGQGLEWMGRIDPLRKQTKYREKFEGRVTITADTSTNTAYMELSSLRSEDTAVYYCVRSGREFDYWGQGTLVTVSSASTKGPSVFPLAPSSKSTSGGTAALGCLVKDYFPEPVTVSWNSGALTSGVHTFPAVLQSSGLYSLSSVVTVPSSSLGTQTYICNVNHKPSNTKVDKKVEPKSCDKTHTCPPCPAPELLGGPSVFLFPPKPKDTLMISRTPEVTCVVVDVSHEEPEVKFNWYVDGVEVHNAKTKPREEQYNSTYRVVSVLTVLHQDWLNGKEYKCKVSNDALPKPIEETISKAKGQPREPQVYTLPPSRCELTKNQVSLSCAVKGFYPSDIAVEWESNGQPENNYKTTPPVLDSDGSFFLVSKLTVDKSRWQQGNVFSCSVMHEALHNHYTQKSLSLSP
light: DIQMTQSPSSLSASVGDRVTITCRASQDIHKYIAWYQQKPGQAPRLLIQYTSTLQPGVPSRFSGSGSGTDYTFTISSLQPEDIATYYCLQYEQLRTFGGGTKVEIKRTVAAPSVFIFPPSDEQLKSGTASVVCLLNNFYPREAKVQWKVDNALQSGNSQESVTEQDSKDSTYSLSSTLTLSKADYEKHKVYACEVTHQGLSSPVTKSFNRGEC
notes: Heterodimerized anti-epiregulin IgG1 antibody; I332Q introduced into H240-Kn120; also called H240-Kn173/H240-HI068/L73-k0
As usually defined, the Kd is the concentration at which binding is half-saturated. On to B1, for which the dissociation constant (Kd) came out at 0.12 nM in [1]; 57 nM in experiment [2]; 0.4 nM in [3]; 280 nM in experiment [4]; 1.8 nM in experiment [5]; 40 nM in experiment [6]. Besides, the “Relative KD” value in experiment [7] stood at 1.3; in [8] it was 0.7; in [9], 0.9; in [10], 0.5; in [11], 1.2; in experiment [12], 0.5.

B2: H240-Kn178/H240-Hl068/L73-k0 (antibody, human IgG1, kappa)
heavy 1: B1 heavy 1 with Q331I, K333Y
heavy 2: B1 heavy 2
light: B1 light
notes: Heterodimerized anti-epiregulin IgG1 antibody; K334Y introduced into H240-Kn120; also called H240-Kn178/H240-HI068/L73-k0
As to B2, the dissociation constant Kd in experiment [1] came out at 0.23 nM; in [2], 65 nM; in experiment [3], 0.19 nM; in [4], 110 nM; in experiment [5], 1.4 nM; in experiment [6], 26 nM. Besides, the “Relative KD” value in experiment [7] was determined as 0.7; in experiment [8], 0.6; in experiment [9] it was 1.9; in [10], 1.4; in experiment [11] it was 1.6; in experiment [12], 0.8.

B3: GpH7-B3 variant T335_02A/GpL16-k0 (homodimerized antibody, Ho Ab) (antibody, human IgG1, kappa)
heavy: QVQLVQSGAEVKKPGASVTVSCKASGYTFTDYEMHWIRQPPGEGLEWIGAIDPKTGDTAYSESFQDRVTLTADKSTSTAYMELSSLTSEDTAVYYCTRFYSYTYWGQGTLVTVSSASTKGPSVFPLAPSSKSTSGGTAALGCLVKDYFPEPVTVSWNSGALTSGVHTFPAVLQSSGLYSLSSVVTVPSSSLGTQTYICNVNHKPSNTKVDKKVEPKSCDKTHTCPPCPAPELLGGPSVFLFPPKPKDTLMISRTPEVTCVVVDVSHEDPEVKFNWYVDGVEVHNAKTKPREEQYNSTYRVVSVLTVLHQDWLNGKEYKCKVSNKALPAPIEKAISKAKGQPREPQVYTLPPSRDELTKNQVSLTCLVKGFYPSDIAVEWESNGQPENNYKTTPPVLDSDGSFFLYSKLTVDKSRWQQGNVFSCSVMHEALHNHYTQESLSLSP
light: DIVMTQSPLSLPVTPGEPASISCQASESLVHSNRNTYLHWYLQKPGQSPQLLIYKVSNRFSGVPDRFSGSGSGTDFTLKISRVEAEDVGVYYCSQNTHVPPTFGQGTKVEIERTVAAPSVFIFPPSDEQLKSGTASVVCLLNNFYPREAKVQWKVDNALQSGNSQESVTEQDSKDSTYSLSSTLTLSKADYEKHKVYACEVTHQGLSSPVTKSFNRGEC
notes: Anti-glypican-3 IgG1 (G1d with K439E = GpH7-B3); the substitution stands in both H chains; also called Ho Ab T335A
With B3, the Ho/Con_2aH in [13] is 103 relative binding activity (control homodimerized antibody GpH7-B3/GpL16-k0 = 100).

B4: GpH7-A5/GpH7-B3 variant T335_02A/GpL16-k0 (heterodimerized antibody, He Ab) (antibody, human IgG1, kappa)
heavy 1: not shown
heavy 2: not shown
light: B3 light
notes: Anti-glypican-3 IgG1; the substitution stands only in the GpH7-B3 chain, the other H chain is GpH7-A5 (D356K/H435R); Position is EU numbering; also called He Ab T335A
In the case of B4, the He/Con_2aH in experiment [14] is 101 relative binding activity (control heterodimerized antibody GpH7-A5/GpH7-B3/GpL16-k0 = 100).

B5: GpH7-A5/GpH7-B3 variant T335_04F/GpL16-k0 (heterodimerized antibody, He Ab) (antibody, human IgG1, kappa)
heavy 1: not shown
heavy 2: not shown
light: B3 light
notes: Anti-glypican-3 IgG1; substitution only in the GpH7-B3 chain; Position is EU numbering; also called He Ab T335F
On to B5, for which, in experiment [14], the He/Con_2aH was 103 relative binding activity (control heterodimerized antibody GpH7-A5/GpH7-B3/GpL16-k0 = 100).

B6: GpH7-A5/GpH7-B3 variant T335_08L/GpL16-k0 (heterodimerized antibody, He Ab) (antibody, human IgG1, kappa)
heavy 1: not shown
heavy 2: not shown
light: B3 light
notes: Anti-glypican-3 IgG1; substitution only in the GpH7-B3 chain; Position is EU numbering; also called He Ab T335L
Consider B6, for which the He/Con_2aH in [14] was 106 relative binding activity (control heterodimerized antibody GpH7-A5/GpH7-B3/GpL16-k0 = 100).

B7: GpH7-A5/GpH7-B3 variant T335_09D/GpL16-k0 (heterodimerized antibody, He Ab) (antibody, human IgG1, kappa)
heavy 1: not shown
heavy 2: not shown
light: B3 light
notes: Anti-glypican-3 IgG1; substitution only in the GpH7-B3 chain; Position is EU numbering; also called He Ab T335D
For B7, in experiment [14], the He/Con_2aH was 107 relative binding activity (control heterodimerized antibody GpH7-A5/GpH7-B3/GpL16-k0 = 100).

B8: GpH7-B3 variant T335_04F/GpL16-k0 (homodimerized antibody, Ho Ab) (antibody, human IgG1, kappa)
heavy: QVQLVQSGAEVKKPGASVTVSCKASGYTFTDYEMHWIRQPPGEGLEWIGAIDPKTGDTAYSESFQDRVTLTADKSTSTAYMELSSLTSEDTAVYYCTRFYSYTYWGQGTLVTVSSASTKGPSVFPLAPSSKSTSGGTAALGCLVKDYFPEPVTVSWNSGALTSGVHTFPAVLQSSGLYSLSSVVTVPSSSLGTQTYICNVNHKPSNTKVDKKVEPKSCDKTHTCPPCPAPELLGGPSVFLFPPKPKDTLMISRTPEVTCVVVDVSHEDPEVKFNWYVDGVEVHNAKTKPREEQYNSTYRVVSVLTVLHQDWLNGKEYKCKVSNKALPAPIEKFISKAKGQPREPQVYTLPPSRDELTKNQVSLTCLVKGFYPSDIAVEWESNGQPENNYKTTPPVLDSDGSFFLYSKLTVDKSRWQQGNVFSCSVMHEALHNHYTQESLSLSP
light: B3 light
notes: Anti-glypican-3 IgG1 (GpH7-B3 background); substitution in both H chains; Position is EU numbering; also called Ho Ab T335F
B8: the Ho/Con_2aH in [13] is 104 relative binding activity (control homodimerized antibody GpH7-B3/GpL16-k0 = 100).
